The results in this text go back to paper PMC3458955 (2012).

The target in this experiment is CXCL12α (Homo sapiens, UniProt P48061). Kind of experiment: total internal reflection ellipsometry (TIRE) on Ishikawa cell membranes; given as Ka.

B1: CXCR4 (protein)
chain: MEGISIYTSDNYTEEMGSGDYDSMKEPCFREENANFNKIFLPTIYSIIFLTGIVGNGLVILVMGYQKKLRSMTDKYRLHLSVADLLFVITLPFWAVDAVANWYFGNFLCKAVHVIYTVNLYSSVLILAFISLDRYLAIVHATNSQRPRKLLAEKVVYVGVWIPALLLTIPDFIFANVSEADDRYICDRFYPNDLWVVVFQFQHIMVGLILPGIVILSCYCIIISKLSHSKGHQKRKALKTTVILILAFFACWLPYYIGISIDSFILLEIIKQGCEFENTVHKWISITEALAFFHCCLNPILYAFLGAKFKTSAQHALTSVSRGSSLKILSKGKRGGHSSVSTESESSSFHSS
By Kd is commonly meant the free concentration of one partner at which half of the binding sites on the other are occupied at equilibrium, for simple one-to-one binding. B1 had a Kd of 714 pM.
